In publication PMC3901155 one finds Km data, which are given here for 1 protein.

Substrate in the data set: Nc1ncnc2c1ncn2[C@@H]1O[C@H](COP(=O)(O)O)[C@@H](OP(=O)(O)O)[C@H]1O
The experiment in a line: purified protein. It counts as biochemical, Rattus norvegicus. To be noted: 5 mM p-nitrophenyl sulfate, pH 7.0, 37 °C.

B1: AST-IV (Rattus norvegicus) (protein)
chain: MEFSRPPLVHVKGIPLIKYFAETIGPLQNFTAWPDDLLISTYPKSGTTWMSEILDMIYQGGKLEKCGRAPIYARVPFLEFKCPGVPSGLETLEETPAPRLLKTHLPLSLLPQSLLDQKVKVIYIARNAKDVVVSYYNFYNMAKLHPDPGTWDSFLENFMDGEVSYGSWYQHVKEWWELRHTHPVLYLFYEDIKENPKREIKKILEFLGRSLPEETVDSIVHHTSFKKMKENCMTNYTTIPTEIMDHNVSPFMRKGTTGDWKNTFTVAQNERFDAHYAKTMTDCDFKFRCEL
Turning to B1, the Km (usually the substrate concentration at which the rate is half of its maximum) turned out to be 25.3 µM.
